Measurements reported in patent US20240116985A1, “STAPLED PEPTIDES AND METHODS THEREOF” (priority 2020, published 2024).
Starred links: 1 amine or outer side, 2 acyl side, 3 side chain; linkers in the order of their positions; H or OH if unused. Positions of bridges follow the written chain, without caps; N, C: chain ends. Non-standard residues stand in square brackets, D forms with d. Primed or numbered codes have the meaning given here. B5(15) = 2-amino-2-(pent-4-en-1-yl)hept-6-enoic acid (2,2-bis(4-pentenyl)glycine), stitching residue bearing two staples, C=CCCCC(CCCC=C)(N[*:1])C(=O)[*:2]; PyrS2″ = (S)-3-amino-1-((pent-4-en-1-yloxy)carbonyl)pyrrolidine-3-carboxylic acid (stapling residue), C=CCCCOC(=O)N1CC[C@@](N[*:1])(C(=O)[*:2])C1; B5(4) = 2,2-bis(4-pentenyl)glycine = 2-amino-2-(pent-4-en-1-yl)hept-6-enoic acid (stitching residue), C=CCCCC(CCCC=C)(N[*:1])C(=O)[*:2]; B5(5) = 2,2-bis(4-pentenyl)glycine, 2-amino-2-(pent-4-en-1-yl)hept-6-enoic acid (stitching residue), C=CCCCC(CCCC=C)(N[*:1])C(=O)[*:2]; TfeGA = (S)-2-amino-3-((carboxymethyl)(2,2,2-trifluoroethyl)amino)propanoic acid, O=C([C@H](CN(CC(=O)[*:3])CC(F)(F)F)N[*:1])[*:2]; PyrS2 = (S)-3-amino-1-((pent-4-en-1-yloxy)carbonyl)pyrrolidine-3-carboxylic acid, C=CCCCOC(=O)N1CC[C@@](N[*:1])(C(=O)[*:2])C1; B5(3) = 2,2-bis(4-pentenyl)glycine (stitching residue), C=CCCCC(CCCC=C)(N[*:1])C(=O)[*:2]; B5 = 2-amino-2-(pent-4-en-1-yl)hept-6-enoic acid, C=CCCCC(CCCC=C)(N[*:1])C(=O)[*:2]; Phe(3-COOH) = N[C@@H](Cc1cccc(C(=O)O)c1)C(=O)O; Phe(2-Cl) = N[C@@H](Cc1ccccc1Cl)C(=O)O; Bta = N[C@@H](Cc1csc2ccccc12)C(=O)O; αAllylPro = C=CC[C@@]1(C(=O)O)CCCN1; tBuAla = CC(C)(C)C[C@H](N)C(=O)O; 3Thi = N[C@@H](Cc1ccsc1)C(=O)O; S8 = C=CCCCCCC[C@](C)(N)C(=O)O; hLeu = CC(C)CC[C@H](N)C(=O)O; hSer = N[C@@H](CCO)C(=O)O

B1: I-1537 (peptide)
peptide: Ac-[αAllylPro]D[hLeu][B5(15)]DEAAF[hSer][S8]F[Bta]Q-NH2
modifications: staple 1-4, 4-11; not fully specified; printed as Ac-PL3-Asp-Hleu-B5-Asp-Glu-Ala-Ala-Phe-Hse-S8-Phe-BztA-Gln-NH2

What follows are binders tested against full-length beta-Catenin (Uniprot ID P35222) (Homo sapiens (Human)) (UniProt P35222) (assay: fluorescence polarization competition; displaces 5FAM-TCF4(10-53) from full-length beta-catenin).
Target sequence in this assay (P35222 2-781 limits assumed): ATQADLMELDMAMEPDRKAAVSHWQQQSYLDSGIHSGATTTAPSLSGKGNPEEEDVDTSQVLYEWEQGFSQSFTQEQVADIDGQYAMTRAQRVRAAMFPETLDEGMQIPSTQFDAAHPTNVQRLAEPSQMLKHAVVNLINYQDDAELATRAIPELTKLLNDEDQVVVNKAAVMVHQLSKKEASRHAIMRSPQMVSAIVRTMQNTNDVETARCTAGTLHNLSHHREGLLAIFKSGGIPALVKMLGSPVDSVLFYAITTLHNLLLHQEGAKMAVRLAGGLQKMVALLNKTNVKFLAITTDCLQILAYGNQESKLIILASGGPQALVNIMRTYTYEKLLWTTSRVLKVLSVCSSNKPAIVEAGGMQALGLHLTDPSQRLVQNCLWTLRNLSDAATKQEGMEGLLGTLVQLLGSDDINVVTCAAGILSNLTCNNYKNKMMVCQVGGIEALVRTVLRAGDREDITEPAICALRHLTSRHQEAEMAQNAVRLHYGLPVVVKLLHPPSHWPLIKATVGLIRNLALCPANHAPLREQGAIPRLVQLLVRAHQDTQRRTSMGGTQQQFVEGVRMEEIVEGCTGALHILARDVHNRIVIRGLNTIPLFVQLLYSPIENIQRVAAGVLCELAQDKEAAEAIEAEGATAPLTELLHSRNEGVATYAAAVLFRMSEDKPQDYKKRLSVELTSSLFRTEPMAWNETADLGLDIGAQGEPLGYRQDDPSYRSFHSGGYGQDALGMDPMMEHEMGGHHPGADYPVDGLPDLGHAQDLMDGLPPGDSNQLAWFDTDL
In the case of Ac-[αAllylPro]D[tBuAla][B5(5)]D[TfeGA]AFFN[PyrS2″][Phe(2-Cl)][Bta]Q-NH2 (staple 1-4, 4-11) [I-1003], the EC50 is reported as 38 nM.
Ac-[αAllylPro]D[hLeu][B5(15)]DEAAFL[S8]F[Bta]Q-NH2 (staple 1-4, 4-11) [I-1536] was tested, and the IC50 was 42 nM.
Work on B1 yielded an IC50 of 31 nM.

Each binder was assayed against full-length beta-Catenin (Uniprot ID P35222) (Homo sapiens (Human)) (UniProt P35222) (assay: fluorescence polarization competition; full-length beta-catenin, competitor probe 5FAM-TCF4(10-53)).
Target sequence in this assay (P35222 2-781 limits assumed): as above
Ac-[αAllylPro]D[tBuAla][B5(4)]D[Phe(3-COOH)]AAFT[PyrS2″][3Thi][Bta]Q-NH2 (staple 1-4, 4-11; also: earlier eluting HPLC staple isomer) [I-980] showed an IC50 of 221 nM.
In the case of Ac-[αAllylPro]D[tBuAla][B5(3)]D[TfeGA]AAFF[PyrS2″][Phe(2-Cl)][Bta]T-NH2 (staple 1-4, 4-11) [I-991], the IC50 is reported as 51 nM.
Binder Ac-[αAllylPro]D[tBuAla][B5(3)]D[Phe(3-COOH)]AAFS[PyrS2″][3Thi][Bta]S-NH2 (staple 1-4, 4-11; also: later eluting HPLC peak (staple isomer)) [I-985] has an IC50 of 430 nM.
For Ac-[αAllylPro]D[tBuAla][B5(4)]D[Phe(3-COOH)]AAFF[PyrS2″][3Thi][Bta]S-NH2 (staple 1-4, 4-11; also: earlier eluting HPLC staple isomer) [I-982], the IC50 was 190 nM.
With Ac-[αAllylPro]D[tBuAla][B5(3)]D[TfeGA]AAFF[PyrS2″]Y[Bta]Q-NH2 (staple 1-4, 4-11) [I-989] the IC50 was 87 nM.
Ac-[αAllylPro]D[tBuAla][B5(4)]D[Phe(3-COOH)]AAFT[PyrS2″][3Thi][Bta]Q-NH2 (staple 1-4, 4-11; also: later eluting HPLC staple isomer) [I-981] was tested, and the IC50 was 374 nM.
Work on Ac-[αAllylPro]D[tBuAla][B5(4)]D[Phe(3-COOH)]AAFS[PyrS2″][3Thi][Bta]Q-NH2 (staple 1-4, 4-11; also: later eluting HPLC staple isomer) [I-979] yielded an IC50 of 240 nM.
For Ac-[αAllylPro]D[tBuAla][B5(3)]D[Phe(3-COOH)]AAFS[PyrS2″][3Thi][Bta]S-NH2 (staple 1-4, 4-11; also: earlier eluting HPLC peak (staple isomer)) [I-984], the IC50 was 179 nM.
Ac-[αAllylPro]D[tBuAla][B5(4)]D[Phe(3-COOH)]AAFS[PyrS2″][3Thi][Bta]Q-NH2 (staple 1-4, 4-11; also: earlier eluting HPLC staple isomer) [I-978] was tested, and the IC50 was 112 nM.
Ac-[αAllylPro]D[tBuAla][B5(3)]D[Phe(3-COOH)]AAFF[PyrS2″][3Thi][Bta]S-NH2 (staple 1-4, 4-11; also: later eluting HPLC peak (staple isomer)) [I-983] was tested, and the IC50 was 118 nM.
For Ac-[αAllylPro]D[tBuAla][B5(3)]D[TfeGA]AAFF[PyrS2″][Phe(2-Cl)][Bta][hSer]-NH2 (staple 1-4, 4-11) [I-992], the IC50 was 59 nM.

The binders below were run against full-length beta-Catenin (Uniprot ID P35222) (Homo sapiens (Human)) (UniProt P35222) (assay: fluorescence polarization competition; 10 nM full-length beta-catenin + 10 nM 5FAM-TCF4(10-53) probe).
Target sequence in this assay (P35222 whole entry): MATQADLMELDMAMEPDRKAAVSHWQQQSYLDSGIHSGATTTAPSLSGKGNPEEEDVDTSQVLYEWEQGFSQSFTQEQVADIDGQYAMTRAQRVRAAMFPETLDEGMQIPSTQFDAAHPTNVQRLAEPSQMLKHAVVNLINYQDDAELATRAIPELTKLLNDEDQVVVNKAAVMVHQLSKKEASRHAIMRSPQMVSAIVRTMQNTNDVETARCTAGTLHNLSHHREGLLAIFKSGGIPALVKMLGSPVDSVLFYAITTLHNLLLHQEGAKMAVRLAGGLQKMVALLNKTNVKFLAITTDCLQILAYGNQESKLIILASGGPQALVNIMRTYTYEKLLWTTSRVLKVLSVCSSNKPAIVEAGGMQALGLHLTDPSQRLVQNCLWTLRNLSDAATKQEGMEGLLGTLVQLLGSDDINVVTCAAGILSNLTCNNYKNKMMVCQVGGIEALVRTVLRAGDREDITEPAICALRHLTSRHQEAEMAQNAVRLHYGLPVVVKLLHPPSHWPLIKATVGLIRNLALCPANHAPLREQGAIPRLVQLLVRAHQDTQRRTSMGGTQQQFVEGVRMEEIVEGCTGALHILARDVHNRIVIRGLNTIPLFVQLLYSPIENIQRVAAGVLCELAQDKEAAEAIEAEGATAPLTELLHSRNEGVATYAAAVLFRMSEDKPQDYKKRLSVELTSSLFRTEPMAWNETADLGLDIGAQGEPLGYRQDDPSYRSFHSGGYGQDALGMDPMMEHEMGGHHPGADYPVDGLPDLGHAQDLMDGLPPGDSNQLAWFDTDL
Ac-[αAllylPro]D[tBuAla][B5(5)]D[TfeGA]AFFN[PyrS2″][Phe(2-Cl)][Bta]Q-NH2 (staple 1-4, 4-11) [I-1003] was tested, and the IC50 was 38 nM.

Each binder was assayed against full-length beta-Catenin (Uniprot ID P35222) (Homo sapiens (Human)) (UniProt P35222) (assay: fluorescence polarization competition; full-length beta-catenin with 5FAM-labeled TCF4 (10-53) probe as competitor).
Target sequence in this assay (P35222 whole entry): as above
Ac-[αAllylPro]D[tBuAla][B5(4)]D[Phe(3-COOH)]AAFT[PyrS2″][3Thi][Bta]Q-NH2 (staple 1-4, 4-11; also: earlier eluting HPLC staple isomer) [I-980] gave an EC50 of 221 nM.
Ac-[αAllylPro]D[tBuAla][B5(3)]D[TfeGA]AAFF[PyrS2″][Phe(2-Cl)][Bta]T-NH2 (staple 1-4, 4-11) [I-991] gave an EC50 of 51 nM.
With Ac-[αAllylPro]D[tBuAla][B5(3)]D[Phe(3-COOH)]AAFS[PyrS2″][3Thi][Bta]S-NH2 (staple 1-4, 4-11; also: later eluting HPLC peak (staple isomer)) [I-985] the EC50 was 301 nM.
Work on Ac-[αAllylPro]D[tBuAla][B5(4)]D[Phe(3-COOH)]AAFF[PyrS2″][3Thi][Bta]S-NH2 (staple 1-4, 4-11; also: earlier eluting HPLC staple isomer) [I-982] yielded an EC50 of 190 nM.
In the case of Ac-[αAllylPro]D[tBuAla][B5(3)]D[TfeGA]AAFF[PyrS2″]Y[Bta]Q-NH2 (staple 1-4, 4-11) [I-989], the EC50 is reported as 87 nM.
With Ac-[αAllylPro]D[tBuAla][B5(4)]D[Phe(3-COOH)]AAFT[PyrS2″][3Thi][Bta]Q-NH2 (staple 1-4, 4-11; also: later eluting HPLC staple isomer) [I-981] the EC50 was 199 nM.
Work on Ac-[αAllylPro]D[tBuAla][B5(4)]D[Phe(3-COOH)]AAFS[PyrS2″][3Thi][Bta]Q-NH2 (staple 1-4, 4-11; also: later eluting HPLC staple isomer) [I-979] yielded an EC50 of 240 nM.
Work on Ac-[αAllylPro]D[tBuAla][B5(3)]D[Phe(3-COOH)]AAFS[PyrS2″][3Thi][Bta]S-NH2 (staple 1-4, 4-11; also: earlier eluting HPLC peak (staple isomer)) [I-984] yielded an EC50 of 179 nM.
Ac-[αAllylPro]D[tBuAla][B5(4)]D[Phe(3-COOH)]AAFS[PyrS2″][3Thi][Bta]Q-NH2 (staple 1-4, 4-11; also: earlier eluting HPLC staple isomer) [I-978] was tested, and the EC50 was 112 nM.
Ac-[αAllylPro]D[tBuAla][B5(3)]D[Phe(3-COOH)]AAFF[PyrS2″][3Thi][Bta]S-NH2 (staple 1-4, 4-11; also: later eluting HPLC peak (staple isomer)) [I-983] was tested, and the EC50 was 118 nM.
Ac-[αAllylPro]D[tBuAla][B5(3)]D[TfeGA]AAFF[PyrS2″][Phe(2-Cl)][Bta][hSer]-NH2 (staple 1-4, 4-11) [I-992] gave an EC50 of 59 nM.

These binders were tested against full-length beta-Catenin (Uniprot ID P35222) (Homo sapiens (Human)) (UniProt P35222) (assay: fluorescence polarization competition: peptide titrated against 10 nM full-length beta-catenin + 10 nM 5FAM-TCF4(10-53) probe).
Target sequence in this assay (P35222 2-781 limits assumed): as the sequence (P35222 2-781 limits assumed) above
Work on Ac-[αAllylPro]F[tBuAla][B5]DDAADN[PyrS2][3Thi][Bta]H-NH2 (staple 1-4, 4-11) [I-796] yielded an EC50 of 8140 nM.
